Source: paper PMC12521702, “Development of a trispecific fusion protein based on angiotensin-converting enzyme 2, glycoprotein 130, and tumor necrosis factor receptor 2 as a promising therapeutic for COVID-19” (Molecular Biomedicine, 2025)

T1: mouse Hyper-IL-6 (mouse, UniProt P22272;P08505)
T1 construct: also called murine Hyper-IL-6; Hyper-IL-6-His; not shown: His tag, C-terminal, kept
T1 chain: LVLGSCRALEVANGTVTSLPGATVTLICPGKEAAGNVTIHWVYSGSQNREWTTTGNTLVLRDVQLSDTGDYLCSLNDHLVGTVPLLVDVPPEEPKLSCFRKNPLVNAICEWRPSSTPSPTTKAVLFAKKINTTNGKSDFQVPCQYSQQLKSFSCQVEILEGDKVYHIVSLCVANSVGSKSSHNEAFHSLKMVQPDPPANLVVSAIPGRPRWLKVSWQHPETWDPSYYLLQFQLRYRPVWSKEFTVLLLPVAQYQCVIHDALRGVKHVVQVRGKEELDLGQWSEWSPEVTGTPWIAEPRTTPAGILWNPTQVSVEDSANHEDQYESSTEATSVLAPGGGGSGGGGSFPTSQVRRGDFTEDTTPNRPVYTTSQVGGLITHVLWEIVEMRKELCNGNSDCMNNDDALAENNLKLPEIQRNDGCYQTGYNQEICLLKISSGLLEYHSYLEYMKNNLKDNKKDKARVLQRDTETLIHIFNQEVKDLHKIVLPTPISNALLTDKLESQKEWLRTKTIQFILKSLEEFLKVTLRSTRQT

B1: ACE2 (M)-Fc-hGP130 (Fc fusion)
chain: QSTIEEQAKFFLDYFNHEAEDLFYQSSLASWNYNTNITEENVQNMNNAGDKWSAFLKEQSTWAQMYPLQEIQNLTVKLQLQALQQNGSSVLSEDKSKRLNTILNTMSTIYSTGKVCNPDNPQECLLLEPGLNEIMANSLDYNERLWAWESWRSEVGKQLRPLYEEYVVLKNEMARANHYEDYGDYWRGDYEVNGVDGYDYSRGQLIEDVEHTFEEIKPLYEHLHAYVRAKLMNAYPSYISPIGCLPAHLLGDMWGQFWTNLYSLTVPFGQKPNIDVTDAMVDQAWDAQRIFKEAEKFFVSVGLPNMTQGFWEYSMLTDPGNVQKAVCHPTAWDLGKGDFRILMCTKVTMDDFLTAHHEMGHIQYDMAYAAQPFLLRNGANEGFHEAVGEIMSLSAATPKHLKSIGLLSPDFQEDNETEINFLLKQALTIVGTLPFTYMLEKWRWMVFKGEIPKDQWMKKWWEMKREIVGVVEPVPHDETYCDPASLFHVSNDYSFIRYYTRTLYQFQFQEALCQAAKHEGPLHKCDISNSTEAGQKLFNMLRLGKSEPWTLALENVVGAKNMNVRPLLNYFEPLFTWLKDQNKNSFVGWSTDWSPYADQSIKVRISLKSALGDKAYEWNDNEMYLFRSSVAYAMRQYFLKVKNQMILFGEEDVRVANLKPRISFNFFVTAPKNVSDIIPRTEVEKAIRMSRSRINDAFRLNDNSLEFLGIQPTLGPPNQPPVSGGGGSGGGGSGGGGSELLDPCGYISPESPVVQLHSNFTAVCVLKEKCMDYFHVNANYIVWKTNHFTIPKEQYTIINRTASSVTFTDIASLNIQLTCNILTFGQLEQNVYGITIISGLPPEKPKNLSCIVNEGKKMRCEWDGGRETHLETNFTLKSEWATHKFADCKAKRDTPTSCTVDYSTVYFVNIEVWVEAENALGKVTSDHINFDPVYKVKPNPPHNLSVINSEELSSILKLTWTNPSIKSVIILKYNIQYRTKDASTWSQIPPEDTASTRSSFTVQDLKPFTEYVFRIRCMKEDGKGYWSDWSEEASGITYEDRPSKAPSFWYKIDPSHTQGYRTVQLVWKTLPPFEANGKILDYEVTLTRWKSHLQNYTVNATKLTVNLTNDRYLATLTVRNLVGKSDAAVLTIPACDFQATHPVMDLKAFPKDNMLWVEWTTPRESVKKYILEWCVLSDKAPCITDWQQEDGTVHRTYLRGNLAESKCYLITVTPVYADGPGSPESIKAYLKQAPPSKGPTVRTKKVGKNEAVLEWDQLPVDVQNGFIRNYTIFYRTIIGNETAVNVDSSHTEYTLSSLTSDTLYMVRMAAYTDEGGKDGPEFTFTTPKFAQGEIE
B2: ACE2 (M)-Fc-mGP130 (Fc fusion)
chain: QSTIEEQAKFFLDYFNHEAEDLFYQSSLASWNYNTNITEENVQNMNNAGDKWSAFLKEQSTWAQMYPLQEIQNLTVKLQLQALQQNGSSVLSEDKSKRLNTILNTMSTIYSTGKVCNPDNPQECLLLEPGLNEIMANSLDYNERLWAWESWRSEVGKQLRPLYEEYVVLKNEMARANHYEDYGDYWRGDYEVNGVDGYDYSRGQLIEDVEHTFEEIKPLYEHLHAYVRAKLMNAYPSYISPIGCLPAHLLGDMWGQFWTNLYSLTVPFGQKPNIDVTDAMVDQAWDAQRIFKEAEKFFVSVGLPNMTQGFWEYSMLTDPGNVQKAVCHPTAWDLGKGDFRILMCTKVTMDDFLTAHHEMGHIQYDMAYAAQPFLLRNGANEGFHEAVGEIMSLSAATPKHLKSIGLLSPDFQEDNETEINFLLKQALTIVGTLPFTYMLEKWRWMVFKGEIPKDQWMKKWWEMKREIVGVVEPVPHDETYCDPASLFHVSNDYSFIRYYTRTLYQFQFQEALCQAAKHEGPLHKCDISNSTEAGQKLFNMLRLGKSEPWTLALENVVGAKNMNVRPLLNYFEPLFTWLKDQNKNSFVGWSTDWSPYADQSIKVRISLKSALGDKAYEWNDNEMYLFRSSVAYAMRQYFLKVKNQMILFGEEDVRVANLKPRISFNFFVTAPKNVSDIIPRTEVEKAIRMSRSRINDAFRLNDNSLEFLGIQPTLGPPNQPPVSGGGGSGGGGSGGGGSQLLEPCGYIYPEFPVVQRGSNFTAICVLKEACLQHYYVNASYIVWKTNHAAVPREQVTVINRTTSSVTFTDVVLPSVQLTCNILSFGQIEQNVYGVTMLSGFPPDKPTNLTCIVNEGKNMLCQWDPGRETYLETNYTLKSEWATEKFPDCQSKHGTSCMVSYMPTYYVNIEVWVEAENALGKVSSESINFDPVDKVKPTPPYNLSVTNSEELSSILKLSWVSSGLGGLLDLKSDIQYRTKDASTWIQVPLEDTMSPRTSFTVQDLKPFTEYVFRIRSIKDSGKGYWSDWSEEASGTTYEDRPSRPPSFWYKTNPSHGQEYRSVRLIWKALPLSEANGKILDYEVILTQSKSVSQTYTVTGTELTVNLTNDRYVASLAARNKVGKSAAAVLTIPSPHVTAAYSVVNLKAFPKDNLLWVEWTPPPKPVSKYILEWCVLSENAPCVEDWQQEDATVNRTHLRGRLLESKCYQITVTPVFATGPGGSESLKAYLKQAAPARGPTVRTKKVGKNEAVLAWDQIPVDDQNGFIRNYSISYRTSVGKEMVVHVDSSHTEYTLSSLSSDTLYMVRMAAYTDEGGKDGPEFTFTTPKFAQGEIE

Legend:
human Hyper-IL-6 = human Hyper-IL-6 (human, UniProt P08887 20-355); test: ELISA; plates coated with 2 μg/mL Hyper-IL-6-His in carbonate-bicarbonate buffer pH 9.6; serial dilutions of fusion proteins from 50 nM, 1 h at 37 °C; HRP anti-human IgG; conditions: both partners purified
mouse Hyper-IL-6 = target: T1, mouse Hyper-IL-6; test: as above; conditions: both partners purified

Binder | EC50 (human Hyper-IL-6) | EC50 (mouse Hyper-IL-6)
B1 | 1.55 nM | –
B2 | – | 1.83 nM
